The target of the experiment is uncleaved full-length membrane-anchored HIV-1_(JR-FL) Env(-) glycoprotein (HIV-1 (JR-FL)). Briefly: cryo-EM structure.

One may read the stoichiometry N as a count of units in the complex or per binding partner. In turn, “uncleaved full-length membrane-anchored HIV-1_(JR-FL) Env(-) glycoprotein (natural protein)” showed a stoichiometry N of 3.

The record behind these values is publication doi:10.1101/288472.
